Values quoted from earlier work, collected in PMC7456198.
pKd: −log10 of the molar value. Where two headings read alike, the source gives them in different places.

Experiments:
[1] = target: GLP-1 receptor (Homo sapiens) (UniProt P43220)
[2] = target: GLP-1 receptor (Homo sapiens) (UniProt P43220); remark: listed apart in the source

Chain of UniProt P43220 (P43220 24-463): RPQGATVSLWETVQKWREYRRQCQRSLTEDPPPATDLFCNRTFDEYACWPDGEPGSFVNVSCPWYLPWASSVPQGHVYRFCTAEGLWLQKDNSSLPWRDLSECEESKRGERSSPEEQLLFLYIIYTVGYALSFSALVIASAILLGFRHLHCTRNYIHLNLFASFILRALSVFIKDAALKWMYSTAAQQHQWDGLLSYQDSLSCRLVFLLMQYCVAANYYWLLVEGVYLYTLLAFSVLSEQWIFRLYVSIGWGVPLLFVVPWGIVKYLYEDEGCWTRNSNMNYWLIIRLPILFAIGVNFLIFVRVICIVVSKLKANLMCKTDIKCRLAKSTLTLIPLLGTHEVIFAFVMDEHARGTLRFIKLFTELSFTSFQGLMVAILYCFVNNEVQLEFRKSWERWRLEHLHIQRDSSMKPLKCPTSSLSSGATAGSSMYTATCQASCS

pKd [1] | pKd [2] | Substance
9.96 |  | Liraglutide (from UniProt P01275)
 | 9.42 | Semaglutide (from UniProt P01275)
